From patent publication US20220340658A1 (WASHINGTON UNIVERSITY, published 2022)

Target: SARS-CoV-1 spike protein (SARS-CoV-1, UniProt P59594 14-1190)
Test: ELISA, hybridoma supernatant

B1: SARS2-38 (antibody, V domains shown)
VH: QVQLKESGPGLVAPSQSLSITCTVSGFSLTRYGVHWVRQPPGKGLEWLGVIWADGSTYYNSALMSRLSISKDNSKSQVFLNMNSLQTDDTAKYYCARDGRGYDDYWGQGTTLTVSS
VL: QIVLTQSPAIMSASPGEKVTMTCSASSTVSFIYWYQQKPGSSPRLLIYDTSNPASGVPVRFSGSGCGTSYYLTISRMEAEDAATYYCQQWNTYPLTFGAGTKLELK
binding result: no binding
